Experimental data reported in article PMC3890319, “Role of Receptor Activity Modifying Protein 1 in Function of the Calcium Sensing Receptor in the Human TT Thyroid Carcinoma Cell Line” (PLoS ONE, 2014).

T1: Calcium Sensing Receptor, C-terminal Citrine fusion (UniProt P41180 20-1078)
T1 construct: Calcium Sensing Receptor (CaSR); cDNA cloned without its stop codon between HindIII and Not1 of pcDNA3.1-Citrine; Acceptor of the FRET pair; it says only that the cDNA was cloned excluding the stop codon; also called CaSR; CaSR-citrine; source: COS-7, transfected by electroporation (pcDNA3.1), in fixed cells; not shown: Citrine, C-terminal, kept
T1 sequence (looked up): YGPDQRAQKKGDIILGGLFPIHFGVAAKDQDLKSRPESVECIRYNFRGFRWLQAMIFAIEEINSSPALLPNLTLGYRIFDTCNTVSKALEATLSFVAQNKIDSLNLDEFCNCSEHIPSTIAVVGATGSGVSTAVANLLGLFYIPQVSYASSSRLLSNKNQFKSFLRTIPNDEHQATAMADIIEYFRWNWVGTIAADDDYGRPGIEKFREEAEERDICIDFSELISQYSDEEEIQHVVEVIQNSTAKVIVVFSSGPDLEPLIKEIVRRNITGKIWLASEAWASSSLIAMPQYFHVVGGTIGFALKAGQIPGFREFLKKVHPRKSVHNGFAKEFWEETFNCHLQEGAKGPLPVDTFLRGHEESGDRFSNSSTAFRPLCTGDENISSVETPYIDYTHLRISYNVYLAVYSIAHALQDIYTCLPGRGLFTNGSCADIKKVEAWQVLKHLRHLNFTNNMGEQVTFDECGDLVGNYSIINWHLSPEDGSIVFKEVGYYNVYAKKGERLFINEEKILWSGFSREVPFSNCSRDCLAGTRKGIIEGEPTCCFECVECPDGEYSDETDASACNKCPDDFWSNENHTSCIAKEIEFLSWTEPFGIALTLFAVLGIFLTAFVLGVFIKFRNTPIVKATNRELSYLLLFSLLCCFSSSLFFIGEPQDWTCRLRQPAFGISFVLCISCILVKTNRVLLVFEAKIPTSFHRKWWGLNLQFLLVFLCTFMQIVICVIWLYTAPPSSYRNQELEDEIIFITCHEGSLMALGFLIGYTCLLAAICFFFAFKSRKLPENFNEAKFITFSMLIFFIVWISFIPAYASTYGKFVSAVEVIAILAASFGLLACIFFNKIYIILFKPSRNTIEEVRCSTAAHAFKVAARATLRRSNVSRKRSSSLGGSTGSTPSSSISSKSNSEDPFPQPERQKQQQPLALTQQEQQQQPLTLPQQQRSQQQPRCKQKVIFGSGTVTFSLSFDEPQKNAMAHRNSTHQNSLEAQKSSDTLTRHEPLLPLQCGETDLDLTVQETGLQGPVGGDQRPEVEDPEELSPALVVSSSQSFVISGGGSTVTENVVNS


Biological target: T1, Calcium Sensing Receptor, C-terminal …
Test: FRET or BRET; sensitized-emission FRET (NFRET, PixFRET) and FRET-based stoichiometry in cell-surface regions of interest (50-pixel dots) of fixed COS-7 cells co-transfected with CaSR-Citrine (acceptor) and RAMP-Cerulean (donor); confocal microscopy at room temperature; NFRET as percent of a Cerulean-linker-Citrine positive control; negative control Citrine alone + RAMP-Cerulean
Settings: partners not purified

Row | Binder | stoichiometry N
1 | Receptor Activity Modifying Protein 3, C-terminal Cerulean fusion (natural protein, UniProt O60896 24-148, looked up, Receptor Activity Modifying Protein 3 (RAMP3); cDNA cloned without its stop codon between Kpn1 and Not1 of pcDNA3.1-Cerulean; Donor of the FRET pair; also called RAMP3; RAMP3-Cer; source: COS-7, transfected by electroporation (pcDNA3.1), in fixed cells; not shown: Cerulean, C-terminal, kept) RAGGCNETGMLERLPLCGKAFADMMGKVDVWKWCNLSEFIVYYESFTNCTEMEANVVGCYWPNPLAQGFITGIHRQFFSNCTVDRVHLEDPPDEVLIPLIVIPVVLTVAMAGLVVWRSKRTDTLL | 1.5 CaSR:RAMP
2 | Receptor Activity Modifying Protein 1, C-terminal Cerulean fusion (natural protein, UniProt O60894 27-148, looked up, Receptor Activity Modifying Protein 1 (RAMP1); cDNA cloned without its stop codon between Kpn1 and Not1 of pcDNA3.1-Cerulean; Donor of the FRET pair; also called RAMP1; RAMP1-Cer; source: COS-7, transfected by electroporation (pcDNA3.1), in fixed cells; not shown: Cerulean, C-terminal, kept) CQEANYGALLRELCLTQFQVDMEAVGETLWCDWGRTIRSYRELADCTWHMAEKLGCFWPNAEVDRFFLAVHGRYFRSCPISGRAVRDPPGSILYPFIVVPITVTLLVTALVVWQSKRTEGIV | 2.19 CaSR:RAMP
